The source of these data is paper PMC8208635.

The target in this assay is nascent, unphosphorylated PKC species (PDK1 binding, Fig. S9C) (UniProt P68403).

B1: PDK1 (enzyme)
chain: MARTTSQLYDAVPIQSSVVLCSCPSPSMVRTQTESSTPPGIPGGSRQGPAMDGTAAEPRPGAGSLQHAQPPPQPRKKRPEDFKFGKILGEGSFSTVVLARELATSREYAIKILEKRHIIKENKVPYVTRERDVMSRLDHPFFVKLYFTFQDDEKLYFGLSYAKNGELLKYIRKIGSFDETCTRFYTAEIVSALEYLHGKGIIHRDLKPENILLNEDMHIQITDFGTAKVLSPESKQARANSFVGTAQYVSPELLTEKSACKSSDLWALGCIIYQLVAGLPPFRAGNEYLIFQKIIKLEYDFPEKFFPKARDLVEKLLVLDATKRLGCEEMEGYGPLKAHPFFESVTWENLHQQTPPKLTAYLPAMSEDDEDCYGNYDNLLSQFGCMQVSSSSSSHSLSASDTGLPQRSGSNIEQYIHDLDSNSFELDLQFSEDEKRLLLEKQAGGNPWHQFVENNLILKMGPVDKRKGLFARRRQLLLTEGPHLYYVDPVNKVLKGEIPWSQELRPEAKNFKTFFVHTPNRTYYLMDPSGNAHKWCRKIQEVWRQRYQSHPDAAVQ
Turning to B1, the fold binding relative to the phosphorylated form was found to be 2 fold.
